Residue numbers refer to the chain shown, from its start.
B1: 27-MP04G01 (VHH)
VHH: QVQLVESGGGLVQAGGSLTLSCAAPGRTFGTDVVGWFRQAPGKEREFVASISRSGDGIYYDDSVKGRFTISRNNAWNTVNLQMNSLKVEDTAVYYCAAGDGWSTYDYWGQGTQVTVSS
notes: VHH in periplasmic extract; also called FJ1427_P035MP04G01; clone nr
B2: FJ1427_P035MP04C01 (VHH)
VHH: B1 VHH with P25S, G30S, S85N
notes: VHH in periplasmic extract; also called clone nr
B3: 36-MP07F02 (VHH)
VHH: QVQLVESGGGLVQAGGSLRLSCAASGRTLSRYAMGWFRQAPGSEREFVAASSWGGDTFYADSVEGRFTFSRDNAKNAVYLQMNSLQPEDTAAYYCAAAPTSFPTTAYSSSNSYAYWGQGTQVTVSS
notes: VHH in periplasmic extract; also called FJ1427_P035MP07F02; clone nr; 590
B4: FJ1427_P035MP04B01 (VHH)
VHH: B3 VHH with Q1E, G16A, S43K, F58Y, A92V, A97G, P103A
notes: VHH in periplasmic extract; also called clone nr; 290
B5: 29-MP04H02 (VHH)
VHH: QVQLVESGGGLVQAGGSLRLACVASGLTFDNYYMGWFRQAPGKEREFVAGIIWNGDHTAYADSIKGRFTISRDNAKNTAYLRMNSLKPEDTAVYYCAATFWIERATTPDIGQYAYWGQGTQVTVSS
notes: VHH in periplasmic extract; also called FJ1427_P035MP04H02; clone nr
B6: FJ1427_P035MP04G07 (VHH)
VHH: QVQLVESGGGWVQVGESLRLSCAPSGRTFVSGIMGWFRQAPGKEREFVARIILNNNSTRYTDSVKGRFTISRDSAKNTMYLQMNTLRPEDTAVYYCAARDRYGSGNSLSPSAYDYWGQGTQVTVSS
notes: as for B2
B7: 30-MP04C03 (VHH)
VHH: EVQLVESGGGWVQDGGSLRLSCALSGRTFVRGIMGWFRQAPGKEREFVARIIWHINSTRYADSVKGRFTISRDSAKNTMYLQMDSLRPEDTAVYYCAARDRYGSGNSLSPSAYDYWGQGTQVTVSS
notes: VHH in periplasmic extract; also called FJ1427_P035MP04C03; clone nr
B8: FJ1427_P035MP04A03 (VHH)
VHH: B6 VHH with Q1E, A40T
notes: as for B2
B9: FJ1427_P035MP04A07 (VHH)
VHH: B6 VHH with V2L, T61I, N84D, T85S
notes: as for B2
B10: FJ1427_P035MP04A10 (VHH)
VHH: B6 VHH with Q1E
notes: as for B2
B11: FJ1427_P035MP04B02 (VHH)
VHH: B6 VHH with A40T
notes: as for B2
B12: FJ1427_P035MP04B06 (VHH)
VHH: B6 VHH with V2L, A23V
notes: VHH in periplasmic extract; also called clone nr; 330
B13: FJ1427_P035MP04B07 (VHH)
VHH: B6 VHH with Q1E, A40T, M79L
notes: as for B2
B14: FJ1427_P035MP04B10 (VHH)
VHH: B6 VHH with Q1E, T61I, N84D, T85S, S126L
notes: as for B2
B15: FJ1427_P035MP04B11 (VHH)
VHH: B6 VHH with Q1E, T61I, N84D, T85S
notes: VHH in periplasmic extract; also called clone nr; 370
B16: FJ1427_P035MP04C05 (VHH)
VHH: B6 VHH with N77D
notes: as for B2
B17: FJ1427_P035MP04C10 (VHH)
VHH: B6 VHH with V5Q, A23V
notes: as for B2
B18: FJ1427_P035MP04C12 (VHH)
VHH: B6 VHH with Q1E, T61I, N84D, T85S
notes: as for B2
B19: FJ1427_P035MP04D09 (VHH)
VHH: B6 VHH with S31R, N55S, T61I, T85S
notes: as for B2
B20: FJ1427_P035MP04D12 (VHH)
VHH: B6 VHH with E16K, T61I, N84D, T85S
notes: VHH in periplasmic extract; also called clone nr; 380
B21: FJ1427_P035MP04E02 (VHH)
VHH: B6 VHH with A40T
notes: VHH in periplasmic extract; also called clone nr; 301
B22: FJ1427_P035MP04E04 (VHH)
VHH: B6 VHH with Q1E, A23V, N55S, T85S
notes: as for B2
B23: FJ1427_P035MP04E12 (VHH)
VHH: B6 VHH with V2L, V30A
notes: as for B2
B24: FJ1427_P035MP04F09 (VHH)
VHH: B6 VHH with S31R, Y80W, N84D, T85S
notes: as for B2
B25: FJ1427_P035MP04F10 (VHH)
VHH: B6 VHH with V2L, A23V, L53S
notes: as for B2
B26: FJ1427_P035MP04F11 (VHH)
VHH: B6 VHH with A40T, M79L
notes: as for B2
B27: FJ1427_P035MP04G03 (VHH)
VHH: B6 VHH with Q1E, N84D, T85S
notes: as for B2
B28: FJ1427_P035MP04G08 (VHH)
VHH: B6 VHH with N84D, T85S
notes: as for B2
B29: FJ1427_P035MP04G10 (VHH)
VHH: B6 VHH with N55S, V64A, N84D, T85S
notes: VHH in periplasmic extract; also called clone nr; 367
B30: FJ1427_P035MP04G11 (VHH)
VHH: B6 VHH with K43E
notes: as for B2
B31: FJ1427_P035MP04H09 (VHH)
VHH: B6 VHH with Q1E
notes: VHH in periplasmic extract; also called clone nr; 360
B32: FJ1427_P035MP04H10 (VHH)
VHH: B6 VHH with W11L, V14A, E16G, T61I, N84D, T85S
notes: as for B2
B33: FJ1427_P035MP04H11 (VHH)
VHH: B6 VHH with L18P, A40T
notes: as for B2
B34: FJ1427_P035MP04D11 (VHH)
VHH: EVQLVESGGGLVQAGGSLRLSCAASGRTFGAVAVGWFRQVPGKEREFVAAINRSGSATKYADSVKGRFTISRDNAESPVFLQMNSLKPEDTAVYYCAADSLPYGRPYYFQTSAGEYDYWGQGTQVTVSS
notes: as for B2
B35: 32-MP04A08 (VHH)
VHH: QVQLVESGGGLVQAGGSLRLSCAASGRTFGSTAVGWFRQVPGKEREFVSAINRSGSATTYADSVKGRFTISRDNAKNTVYLQMNSLTPEDTGVYYCAADSLPYGRPYYFQRSAGEYDYWGQGTQVTVSS
notes: VHH in periplasmic extract; also called FJ1427_P035MP04A08; clone nr
B36: FJ1427_P035MP04A09 (VHH)
VHH: B34 VHH with E1Q, S54N, V64A, F80Y, V93I
notes: as for B2
B37: 33-MP04C09 (VHH)
VHH: QLQLVESGGGLVQAGGSLRLSCAASGPTFSRVAVGWFRQAPGKEREFVAAVNRPATMTKYADSVKGRFTVSRDNAKNTVDLQMNSMKPEDTAVYYCAADSVPYGRPYYWQTSAGDYDYWGQGTQVTVSS
notes: VHH in periplasmic extract; also called FJ1427_P035MP04C09; clone nr
B38: FJ1427_P035MP04F02 (VHH)
VHH: QLQLVESGGGLVQAGGSLTLSCAASGRTFSRDVVGWFRQAPGKEREFVASISRSGDGTFYTDSVKGRFTISSRDNAKNTVLLQMNSLKVEDTAVYYCAAGDGWSTYDYWGQGTQVTVSS
notes: as for B2

molecular target: T1, human IL-2Rγ (common cytokine receptor γ-chain) (human, UniProt P31785 23-262, limits assumed); assay: PE binding ELISA, periplasmic extract on coated protein
T1 construct: Recombinant protein coated on the plate or immobilised on a CM5 chip; also called hu IL-2R; CD132
T1 sequence: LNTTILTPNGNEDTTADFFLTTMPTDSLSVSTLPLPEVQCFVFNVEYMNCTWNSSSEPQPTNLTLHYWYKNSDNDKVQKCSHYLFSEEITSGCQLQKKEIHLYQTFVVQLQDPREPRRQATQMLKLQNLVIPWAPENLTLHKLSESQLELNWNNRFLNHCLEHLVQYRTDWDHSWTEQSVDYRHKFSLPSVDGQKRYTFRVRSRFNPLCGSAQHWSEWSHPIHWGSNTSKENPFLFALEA
Procedure: In a binding ELISA, human or mouse IL-2Rα, IL-2Rβ and IL-2Rγ proteins were coated directly on maxisorp microtiter plates overnight at 4° C. Free binding sites were blocked using 4% Marvel in PBS for 1 hour. Next, 1:5 dilution of P.E. in 1% Marvel/PBS were added to wells and incubated for 1 hour. […] Binding specificity was determined based on O.D. at 450 nm values compared to negative controls.

Row | Binder | OD (PE binding ELISA) [OD450 nm]
1 | B1 | 0.362
2 | B2 | 0.264
3 | B3 | 0.896
4 | B4 | 0.873
5 | B5 | 0.157
6 | B6 | 0.863
7 | B7 | 1.49
8 | B8 | 1.87
9 | B9 | 1.9
10 | B10 | 1.85
11 | B11 | 1.97
12 | B12 | 1.45
13 | B13 | 1.94
14 | B14 | 1.47
15 | B15 | 0.75
16 | B16 | 1.81
17 | B17 | 1.33
18 | B18 | 1.68
19 | B19 | 1.93

Row | Binder | OD (PE binding ELISA) [OD450 nm]
20 | B20 | 1.05
21 | B21 | 1.98
22 | B22 | 1.73
23 | B23 | 1.33
24 | B24 | 1.77
25 | B25 | 0.751
26 | B26 | 2.01
27 | B27 | 0.933
28 | B28 | 1.84
29 | B29 | 0.839
30 | B30 | 1.4
31 | B31 | 1.87
32 | B32 | 1.8
33 | B33 | 1.77
34 | B34 | 1.41
35 | B35 | 0.407
36 | B36 | 1.23
37 | B37 | 1.69
38 | B38 | 0.196

molecular target: T1, human IL-2Rγ (common cytokine receptor …); assay: SPR off-rate ranking, periplasmic extract on immobilised protein
Procedure: SPR was performed to determine dissociation rates using Biacore 3000 instrument (GE Healthcare). Briefly, human and mouse IL-2R proteins were immobilized on carboxylmethyl dextran sensor chip (CM5) at approximately 2500 RUs using amine coupling in acetate buffer (GE Healthcare). The VHH-containing P.E. were loaded with a flow rate of 30 uL/min and the off-rates were measured over a 120s period.

Row | Binder | koff [s⁻¹]
39 | B1 | 0.00131
40 | B2 | 0.00124
41 | B3 | 0.00331
42 | B4 | 0.00327
43 | B5 | 0.00625
44 | B6 | 0.0091
45 | B7 | 0.00844
46 | B8 | 0.00712
47 | B9 | 0.0196
48 | B10 | 0.0204
49 | B11 | 0.0285
50 | B12 | 0.0208
51 | B13 | 0.0187
52 | B14 | 0.00749
53 | B15 | 0.0103
54 | B16 | 0.00775
55 | B17 | 0.0205
56 | B18 | 0.00732
57 | B19 | 0.0207

Row | Binder | koff [s⁻¹]
58 | B20 | 0.0072
59 | B21 | 0.00652
60 | B22 | 0.00796
61 | B23 | 0.00688
62 | B24 | 0.00795
63 | B25 | 0.0147
64 | B26 | 0.0111
65 | B27 | 0.00744
66 | B28 | 0.00892
67 | B29 | 0.0104
68 | B30 | 0.0116
69 | B31 | 0.0222
70 | B32 | 0.00998
71 | B33 | 0.0103
72 | B34 | 0.0401
73 | B35 | 0.0616
74 | B36 | 0.0576
75 | B37 | 0.031
76 | B38 | 0.0026

Source: patent US20240409645A1 (DUALYX, published 2024)
